T1: p1 NTR (Tetrahymena, UniProt Q22VV9 1-150)
T1 sequence: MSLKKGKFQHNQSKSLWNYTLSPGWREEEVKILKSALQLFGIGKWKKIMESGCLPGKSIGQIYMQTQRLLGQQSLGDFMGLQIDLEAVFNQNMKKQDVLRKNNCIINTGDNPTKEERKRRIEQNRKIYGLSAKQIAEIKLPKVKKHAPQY


Target: T1, p1 NTR
Experiment: fluorescence polarization

| Binder | Kd [µM] |
| --- | --- |
| umDNA 6-FAM (dsDNA) DNA 1: AACTTTCTTAACATCTTAACTTTAACT DNA 2: AGTTAAAGTTAAGATGTTAAGAAAGTT | 0.037 |
| hmDNA 6-FAM (27ATrich_6mA_s / 27ATrich_6FAM_a) (dsDNA, N6-methyl-dA at position 13 of strand 1) DNA 1: AACTTTCTTAACATCTTAACTTTAACT DNA 2: AGTTAAAGTTAAGATGTTAAGAAAGTT | 0.035 |

Reference: PMC12485025
